This assay addresses recombinant SARS-CoV-2 RBD (Sino Biological) (SARS-CoV-2, UniProt P0DTC2). As to the kind of experiment: cell-based or functional assay.

B1: B8-dIgA1 (antibody, V domains shown)
VH: EVQLVQSGAEVKKPGSSVKVSCKASGGTFSNYGISWVRQAPGQGLEWMGRILPTFGTANSAQKFQGRVTITADESTGTAYMELRSLRSEDTAVYYCAKEGLAFLGYGMDVWGQGTTVTVSS
VL: EIVLTQSPGTLSLSPGERATLSCRASQSVSSYLAWYQQKPGQAPRLLIYDASNRATGIPARFIGSGSGTDFTLTISSLEPEDFAVYFCQQRSNWPLTFGGGTKVEIK
As for B1, the “IC50, neutralisation of SARS-CoV-2 pseudovirus in HEK293T-ACE2 cells” value (“IC50, neutralisation” for short) is 0.0048 µg/mL and the “IC90, neutralisation of SARS-CoV-2 pseudovirus in HEK293T-ACE2 cells” value (“IC90, neutralisation” below) was 0.033 µg/mL.

B2: B8-mIgA1 (antibody, V domains shown)
VH: EVQLVQSGAEVKKPGSSVKVSCKASGGTFSNYGISWVRQAPGQGLEWMGRILPTFGTANSAQKFQGRVTITADESTGTAYMELRSLRSEDTAVYYCAKEGLAFLGYGMDVWGQGTTVTVSS
VL: EIVLTQSPGTLSLSPGERATLSCRASQSVSSYLAWYQQKPGQAPRLLIYDASNRATGIPARFIGSGSGTDFTLTISSLEPEDFAVYFCQQRSNWPLTFGGGTKVEIK
In the case of B2, the “IC50, neutralisation” value turned out to be 0.012 µg/mL and the “IC90, neutralisation” value stood at 0.052 µg/mL.

B3: B8-mIgA2 (antibody, V domains shown)
VH: EVQLVQSGAEVKKPGSSVKVSCKASGGTFSNYGISWVRQAPGQGLEWMGRILPTFGTANSAQKFQGRVTITADESTGTAYMELRSLRSEDTAVYYCAKEGLAFLGYGMDVWGQGTTVTVSS
VL: EIVLTQSPGTLSLSPGERATLSCRASQSVSSYLAWYQQKPGQAPRLLIYDASNRATGIPARFIGSGSGTDFTLTISSLEPEDFAVYFCQQRSNWPLTFGGGTKVEIK
As to B3, the “IC50, neutralisation” value is 0.0057 µg/mL and the “IC90, neutralisation” value is 0.014 µg/mL.

B4: B8-dIgA2 (antibody, V domains shown)
VH: EVQLVQSGAEVKKPGSSVKVSCKASGGTFSNYGISWVRQAPGQGLEWMGRILPTFGTANSAQKFQGRVTITADESTGTAYMELRSLRSEDTAVYYCAKEGLAFLGYGMDVWGQGTTVTVSS
VL: EIVLTQSPGTLSLSPGERATLSCRASQSVSSYLAWYQQKPGQAPRLLIYDASNRATGIPARFIGSGSGTDFTLTISSLEPEDFAVYFCQQRSNWPLTFGGGTKVEIK
B4: the “IC50, neutralisation” value amounted to 0.012 µg/mL and the “IC90, neutralisation” value worked out at 0.021 µg/mL.
